± gives the uncertainty stated by the source.

From the supplement of paper PMC7877785 come the findings set out here.

A short description of the data set: self-splicing fitness, log relative to wild type (ln ratio); higher = more splicing; Tetrahymena group I intron in knt gene, E. coli kanamycin selection, DiMSum; sequences stand for … in CUCUCU…GGAGGGAAAAGUUAUCAGGCAUGCACCUGGUAGCUAGUCUUUAAACCAAUAGAUUGCAUCGGUUUAAAAGGCAAGACCGUCAAAUUGCGGGAAAGGGGUCAACAGCCGUUCAGUACCAAGUCUCAGGGGAAACUUUGAGAUGGCCUUGCAAAGGGUAUGGUAAUAAGCUGACGGACAUGGUCCUAACCACGCAGCCAAGUCCUAAGUCAACAGAUCUUCUGUUGAUAUGGAUGCAGUUCACAGACUAAAUGUCGGUCGGGGAAGAUGUAUUCUUCUCAUAAGAUAUAGUCGGACCUCUCCUUAAUGGGAGCUAGCGGAUGAAGUGAUGCAACACUGGAGCCGCUGGGAACUAAUUUGUAUGCGAAAGUAUAUUGAUUAGUUUUGGAGUACUCGUGGUCG
In a few lines: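 Colonies from six replicate transformations of E. coli BL21(DE3) were pooled and amplicon-sequenced on an Illumina HiSeq 2500. The library placed an intron with all eight P1ex-region nucleotides randomised inside the knt kanamycin-resistance gene on pET-22b(+), and cells grew overnight at 37°C or 30°C on LB agar with or without 25 μg/mL kanamycin (plus 100 μg/mL carbenicillin, 50 μM IPTG, 0.2% rhamnose). Fitness is the DiMSum error-weighted combination of wild-type-normalised replicate fold changes, kanamycin versus none.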

For the sequence AGUAAGCAAUAUUACGACUC, the “self-splicing fitness (ln)” value (30 °C) is -1.88 ± 0.13 and the “self-splicing fitness (ln)” value (37 °C) was -0.797 ± 0.14.

For the sequence UUCCAGCAAUAUUACGGGCG, the “self-splicing fitness (ln)” value runs as follows: (30 °C) -0.245 ± 0.081; (37 °C) 0.254 ± 0.097.

As for UAUUAGCAAUAUUACGUACU, the “self-splicing fitness (ln)” value reads like this: (30 °C) -0.305 ± 0.13; (37 °C) -0.224 ± 0.16.

Turning to AAGAAGCAAUAUUACGUUCA, the “self-splicing fitness (ln)” value reads like this: (30 °C) -0.746 ± 0.077; (37 °C) 0.133 ± 0.099.

As to GACAAGCAAUAUUACGGAGC, the “self-splicing fitness (ln)” value (30 °C) was -2.2 ± 0.09 and the “self-splicing fitness (ln)” value (37 °C) is -1.65 ± 0.13.

With CCCCAGCAAUAUUACGGUUA, the “self-splicing fitness (ln)” value runs as follows: (30 °C) -3.5 ± 0.17; (37 °C) -2.61 ± 0.13.

On to AAGCAGCAAUAUUACGACAC, for which the “self-splicing fitness (ln)” value is, setting by setting: (30 °C) -1.25 ± 0.058; (37 °C) -0.831 ± 0.073.

As for UCCGAGCAAUAUUACGACAA, the “self-splicing fitness (ln)” value (30 °C) was -2.23 ± 0.46.

Consider AGUCAGCAAUAUUACGGUCU, for which the “self-splicing fitness (ln)” value by setting is: (30 °C) -0.851 ± 0.06; (37 °C) -0.146 ± 0.068.

For the sequence AAACAGCAAUAUUACGCACU, the “self-splicing fitness (ln)” value runs as follows: (30 °C) -0.221 ± 0.079; (37 °C) 0.0967 ± 0.091.

On to UAUGAGCAAUAUUACGCGUG, for which the “self-splicing fitness (ln)” value runs as follows: (30 °C) -1.88 ± 0.12; (37 °C) -1.04 ± 0.11.

As for GUCCAGCAAUAUUACGUCGU, the “self-splicing fitness (ln)” value reads like this: (30 °C) -0.0754 ± 0.066; (37 °C) -0.486 ± 0.088.

As to CGCUAGCAAUAUUACGUGCC, the “self-splicing fitness (ln)” value (30 °C) was -1.58 ± 0.11 and the “self-splicing fitness (ln)” value (37 °C) was -0.959 ± 0.15.

With GUGAAGCAAUAUUACGCCGU, the “self-splicing fitness (ln)” value is -1.23 ± 0.13 (30 °C) and -0.0879 ± 0.21 (37 °C).

As to GUCCAGCAAUAUUACGCGAG, the “self-splicing fitness (ln)” value (30 °C) was -0.816 ± 0.088 and the “self-splicing fitness (ln)” value (37 °C) was -0.322 ± 0.1.

Take AUAAAGCAAUAUUACGAGCG: the “self-splicing fitness (ln)” value (30 °C) is -0.041 ± 0.086 and the “self-splicing fitness (ln)” value (37 °C) worked out at 0.101 ± 0.09.

Take ACAUAGCAAUAUUACGUUCU: the “self-splicing fitness (ln)” value (30 °C) was -1.19 ± 0.11 and the “self-splicing fitness (ln)” value (37 °C) was -0.553 ± 0.12.

With UAAGAGCAAUAUUACGUUAA, the “self-splicing fitness (ln)” value is, setting by setting: (30 °C) -3.21 ± 0.22; (37 °C) -2.3 ± 0.2.

As to UAAAAGCAAUAUUACGGUCU, the “self-splicing fitness (ln)” value was -1.83 ± 0.076 (30 °C) and -0.678 ± 0.079 (37 °C).

In the case of GUUCAGCAAUAUUACGAAGA, the “self-splicing fitness (ln)” value reads like this: (30 °C) -0.456 ± 0.086; (37 °C) 0.147 ± 0.1.

On to UUUAAGCAAUAUUACGGUGA, for which the “self-splicing fitness (ln)” value by setting is: (30 °C) -1.11 ± 0.11; (37 °C) -0.554 ± 0.12.

Consider CGCCAGCAAUAUUACGAAAG, for which the “self-splicing fitness (ln)” value is -0.802 ± 0.054 (30 °C) and 0.0641 ± 0.081 (37 °C).

As for CGGAAGCAAUAUUACGCAAU, the “self-splicing fitness (ln)” value was -3 ± 0.26 (30 °C) and -2.69 ± 0.26 (37 °C).

As to CAGCAGCAAUAUUACGGAGA, the “self-splicing fitness (ln)” value was -3.3 ± 0.31 (30 °C) and -3.02 ± 0.22 (37 °C).

For the sequence AACGAGCAAUAUUACGAGAU, the “self-splicing fitness (ln)” value reads like this: (30 °C) -4.25 ± 0.36; (37 °C) -3.02 ± 0.3.

As to GGCUAGCAAUAUUACGACGA, the “self-splicing fitness (ln)” value (30 °C) is -1.31 ± 0.15 and the “self-splicing fitness (ln)” value (37 °C) is -1.08 ± 0.17.

Turning to AUUGAGCAAUAUUACGAGUU, the “self-splicing fitness (ln)” value was -2.58 ± 0.14 (30 °C) and -2.23 ± 0.17 (37 °C).

ACGUAGCAAUAUUACGCCAC: the “self-splicing fitness (ln)” value was -4.5 ± 0.39 (30 °C) and -2.54 ± 0.44 (37 °C).

On to AAUUAGCAAUAUUACGAUGU, for which the “self-splicing fitness (ln)” value reads like this: (30 °C) -0.358 ± 0.078; (37 °C) 0.171 ± 0.11.

Regarding UGGUAGCAAUAUUACGACAA, the “self-splicing fitness (ln)” value runs as follows: (30 °C) -0.344 ± 0.41; (37 °C) -0.278 ± 0.31.

For CUCCAGCAAUAUUACGUUAA, the “self-splicing fitness (ln)” value (30 °C) is -3.9 ± 0.25 and the “self-splicing fitness (ln)” value (37 °C) was -2.68 ± 0.36.

Consider CCAUAGCAAUAUUACGCAAU, for which the “self-splicing fitness (ln)” value runs as follows: (30 °C) -3.67 ± 0.15; (37 °C) -2.64 ± 0.15.

Consider ACACAGCAAUAUUACGAGUC, for which the “self-splicing fitness (ln)” value (30 °C) was -5.36 ± 0.27 and the “self-splicing fitness (ln)” value (37 °C) was -3.05 ± 0.19.

With GGUAAGCAAUAUUACGAUCA, the “self-splicing fitness (ln)” value is -0.121 ± 0.1 (30 °C) and -0.203 ± 0.1 (37 °C).

Take CCAUAGCAAUAUUACGAAUC: the “self-splicing fitness (ln)” value is, setting by setting: (30 °C) -3.22 ± 0.14; (37 °C) -1.38 ± 0.17.

In the case of UGUAAGCAAUAUUACGUAAA, the “self-splicing fitness (ln)” value was -2.36 ± 0.19 (30 °C) and -1.02 ± 0.16 (37 °C).

With AAAUAGCAAUAUUACGGAGG, the “self-splicing fitness (ln)” value runs as follows: (30 °C) -3.39 ± 0.2; (37 °C) -2.86 ± 0.26.

Regarding AGGAAGCAAUAUUACGUGCC, the “self-splicing fitness (ln)” value (30 °C) was -1.72 ± 0.22 and the “self-splicing fitness (ln)” value (37 °C) is -0.175 ± 0.23.

For AUGUAGCAAUAUUACGCUCC, the “self-splicing fitness (ln)” value (30 °C) was -0.373 ± 0.28 and the “self-splicing fitness (ln)” value (37 °C) is -0.973 ± 0.45.

With UCGGAGCAAUAUUACGAUGG, the “self-splicing fitness (ln)” value reads like this: (30 °C) -3.2 ± 0.22; (37 °C) -2.1 ± 0.25.

For GAUGAGCAAUAUUACGCGUA, the “self-splicing fitness (ln)” value is -1.96 ± 0.29 (30 °C) and -1.85 ± 0.33 (37 °C).

Take AGGUAGCAAUAUUACGCGUC: the “self-splicing fitness (ln)” value (30 °C) is -2.763 ± 0.023 and the “self-splicing fitness (ln)” value (37 °C) is -1.57 ± 0.037.

As for CUAUAGCAAUAUUACGAAGG, the “self-splicing fitness (ln)” value runs as follows: (30 °C) -1.76 ± 0.13; (37 °C) -1.72 ± 0.19.

Consider UGCCAGCAAUAUUACGAGCG, for which the “self-splicing fitness (ln)” value was -0.919 ± 0.066 (30 °C) and -0.309 ± 0.079 (37 °C).

Turning to UUCAAGCAAUAUUACGGUCC, the “self-splicing fitness (ln)” value reads like this: (30 °C) -1.46 ± 0.25; (37 °C) -2.3 ± 0.42.

In the case of AUCCAGCAAUAUUACGAGGC, the “self-splicing fitness (ln)” value runs as follows: (30 °C) -1.97 ± 0.16; (37 °C) -1.41 ± 0.23.

On to UACGAGCAAUAUUACGCUGG, for which the “self-splicing fitness (ln)” value reads like this: (30 °C) -3.2 ± 0.27; (37 °C) -1.77 ± 0.16.

Regarding UACCAGCAAUAUUACGCAAA, the “self-splicing fitness (ln)” value by setting is: (30 °C) -1.54 ± 0.081; (37 °C) 0.0436 ± 0.096.

Take GCAGAGCAAUAUUACGUGAA: the “self-splicing fitness (ln)” value by setting is: (30 °C) -3.15 ± 0.14; (37 °C) -1.59 ± 0.19.

Consider CCUGAGCAAUAUUACGAGUA, for which the “self-splicing fitness (ln)” value was -2.98 ± 0.21 (30 °C) and -3.03 ± 0.43 (37 °C).

In the case of CAAAAGCAAUAUUACGCGGG, the “self-splicing fitness (ln)” value (30 °C) was -2.38 ± 0.11 and the “self-splicing fitness (ln)” value (37 °C) is -1.87 ± 0.13.

Take GUCAAGCAAUAUUACGUAAU: the “self-splicing fitness (ln)” value was -0.836 ± 0.044 (30 °C) and -0.385 ± 0.061 (37 °C).

Consider AGCUAGCAAUAUUACGAGGC, for which the “self-splicing fitness (ln)” value was -3.21 ± 0.24 (30 °C) and -1.96 ± 0.21 (37 °C).

In the case of AAUAAGCAAUAUUACGGCCC, the “self-splicing fitness (ln)” value (30 °C) is -0.731 ± 0.17 and the “self-splicing fitness (ln)” value (37 °C) was determined as 0.533 ± 0.27.

As for GCUCAGCAAUAUUACGCUUG, the “self-splicing fitness (ln)” value by setting is: (30 °C) -2.04 ± 0.11; (37 °C) 0.227 ± 0.1.

Regarding AGCUAGCAAUAUUACGUAUC, the “self-splicing fitness (ln)” value runs as follows: (30 °C) -3.55 ± 0.18; (37 °C) -3.09 ± 0.24.

Consider AAAAAGCAAUAUUACGUACU, for which the “self-splicing fitness (ln)” value (30 °C) is 0.142 ± 0.054 and the “self-splicing fitness (ln)” value (37 °C) was determined as 0.151 ± 0.077.

With CUGCAGCAAUAUUACGCUCG, the “self-splicing fitness (ln)” value runs as follows: (30 °C) -2.3 ± 0.16; (37 °C) -0.671 ± 0.16.

Turning to CCUGAGCAAUAUUACGUGAU, the “self-splicing fitness (ln)” value (30 °C) is -3.68 ± 0.24 and the “self-splicing fitness (ln)” value (37 °C) is -3.54 ± 0.33.

In the case of GAGCAGCAAUAUUACGCGUA, the “self-splicing fitness (ln)” value runs as follows: (30 °C) -0.655 ± 0.18; (37 °C) -0.959 ± 0.14.
